{"source": "patent US20230293644A1", "about": "“ANTI-INFLAMMATORY PEPTIDES AND COMPOSITION COMPRISING THE SAME” (Gemvax & KAEL Co., Ltd., priority 2012, published 2023)", "type_in_all_cases": "cell-based, rat", "key": {"[1]": {"tested_on": "neural stem cells", "test": "Amyloid-β toxicity assessment on neural stem cells", "conditions": "20 µM amyloid-β protein, 48 hours", "protocol": "After removing the cortex from the head of an embryonic rat that had been pregnant for 13 days, it was cultured for a week with Basic Fibroblast Growth Factor (bFGF) to obtain the neural stem cells. To analyze the effects of the amyloid-β protein on the neural stem cells, the pre-oligomerized amyloid-β protein of concentrations 0 to 40 µM was treated on neural stem cells for 48 hours, then CCK-8 assay, BrdU, and TUNEL assay were used for cytotoxicity assessment (refer from BA Yankner et al, 1990 and KN Dahlgren et al, 2002)."}, "[2]": {"tested_on": "HSP 70", "test": "2D-electrophoresis protein expression in neural stem cells: HSP 70", "conditions": "β-amyloid alone; negative control 1.0", "experimental": "(§1) Protein expression level of PEP-1 treated group and untreated group was analyzed by 2D-electrophoresis technique and antibody microarray technique. Prepared 200ug by extracting proteome from the neural stem cells cultured in Experiment 1-1 of example 3. In addition, the group in which PEP-1 was not treated was used as the comparison group in the same condition.\n(§2) 2D-electrophoresis was performed using 12% acrylamide gels. First gel electrophoresis was performed at Pl 4~10N, using a gel size of 8.5×7cm. After electrophoresis, it was dyed with Colloidal Coomassie Blue, and then compared expression by using PDQuest software to analyze each spot.\n(§3) Difference in the expression levels of more than 1.5 times was identified using MALDI-TOF MS (Matrix Desoprtion/lionization Time of Flight Mass Spectromestry). Among these, proteins correlated with inflammation-related signaling, such as i-NOS and HMGB-1 were identified (Refer to Table 6). The changes in protein expression levels either increased or decreased by 1.5 times by amyloid-β protein, but it was confirmed that expression level was regulated close to that of negative control when PEP-1 was added (Refer to FIG. 57).\n(§4) The Table 6 below is an analysis of expression levels of proteins associated with inflammation by 2D electrophoresis technique. […]"}, "[3]": {"tested_on": "HSP 90", "test": "2D-electrophoresis protein expression in neural stem cells: HSP 90", "conditions": "β-amyloid alone; negative control 1.0", "experimental": "as §1, §2, §3, §4"}, "[4]": {"tested_on": "HHGB1", "test": "2D-electrophoresis protein expression in neural stem cells: HHGB1", "conditions": "β-amyloid alone; negative control 1.0", "experimental": "as §1, §2, §3, §4"}, "[5]": {"tested_on": "GAUD 153", "test": "2D-electrophoresis protein expression in neural stem cells: GAUD 153", "conditions": "β-amyloid alone; negative control 1.0", "experimental": "as §1, §2, §3, §4"}, "[6]": {"tested_on": "i-N0S", "test": "2D-electrophoresis protein expression in neural stem cells: i-N0S", "conditions": "β-amyloid alone; negative control 1.0", "experimental": "as §1, §2, §3, §4"}, "[7]": {"tested_on": "e-N0S", "test": "2D-electrophoresis protein expression in neural stem cells: e-N0S", "conditions": "β-amyloid alone; negative control 1.0", "experimental": "as §1, §2, §3, §4"}, "[8]": {"tested_on": "Pyk2", "test": "2D-electrophoresis protein expression in neural stem cells: Pyk2", "conditions": "β-amyloid alone; negative control 1.0", "experimental": "as §1, §2, §3, §4"}, "[9]": {"tested_on": "MAP Kinase", "test": "2D-electrophoresis protein expression in neural stem cells: MAP Kinase", "conditions": "β-amyloid alone; negative control 1.0", "experimental": "as §1, §2, §3, §4"}}}
{"substance": "amyloid-β protein", "values": [{"measurement": "cell survival", "setting": "[1]", "value": 60, "unit": "%"}, {"measurement": "HSP 70 expression, 20ug β -amyloid treated group (fold)", "setting": "[2]", "value": -2.3, "unit": "fold"}, {"measurement": "HSP 90 expression, 20ug β -amyloid treated group (fold)", "setting": "[3]", "value": -1.8, "unit": "fold"}, {"measurement": "HHGB1 expression, 20ug β -amyloid treated group (fold)", "setting": "[4]", "value": -1.5, "unit": "fold"}, {"measurement": "GAUD 153 expression, 20ug β -amyloid treated group (fold)", "setting": "[5]", "value": 1.6, "unit": "fold"}, {"measurement": "i-N0S expression, 20ug β -amyloid treated group (fold)", "setting": "[6]", "value": 1.9, "unit": "fold"}, {"measurement": "e-N0S expression, 20ug β -amyloid treated group (fold)", "setting": "[7]", "value": 1.9, "unit": "fold"}, {"measurement": "Pyk2 expression, 20ug β -amyloid treated group (fold)", "setting": "[8]", "value": 2.0, "unit": "fold"}, {"measurement": "MAP Kinase expression, 20ug β -amyloid treated group (fold)", "setting": "[9]", "value": 2.2, "unit": "fold"}]}
